target: CRM1^HA (high affinity mutant of CRM1) (UniProt Q6P5F9); assay: ITC; TFP-NES, YFP-NES or NES peptides at 35–180 μM titrated onto CRM1^HA at 2–14 μM; 20°C; 20 mM HEPES pH 7.4, 50 mM NaCl, 1 mM TCEP, 1 mM MgCl2; independent binding sites model

Substance	Kd	dH	stoichiometry N
TFP-mutA(NES) (domain or fragment)	2380 nM	-14.5 kcal/mol	0.54
peptide AL (long NES motif of NPM mutant A, with Ile284)	57 nM	-18.1 kcal/mol	0.33
TFP-mutE(NES) (domain or fragment)	1040 nM	-15.4 kcal/mol	0.8
peptide ES (short NES motif of NPM mutant E)	76 nM	-20.8 kcal/mol	0.4

Stronger by Kd, values ahead:

Kd	dH	stoichiometry N	Substance
31 nM	-19.8 kcal/mol	0.51	peptide EL (long NES motif of NPM mutant E, with Ile284)
18 nM	-13.7 kcal/mol	1.01	YFP-PKI(NES) (domain or fragment)

— PMC4474691, “Leukemia-Associated Mutations in Nucleophosmin Alter Recognition by CRM1: Molecular Basis of Aberrant Transport” (PLoS ONE, 2015)
